From patent publication US20240034757A1 (OXFORD UNIVERSITY INNOVATION, published 2024)
Like-named read-outs stand apart in the source and are kept apart here.

T1: CXCL8_HUMAN (human, UniProt P10145 28-99)
T1 sequence: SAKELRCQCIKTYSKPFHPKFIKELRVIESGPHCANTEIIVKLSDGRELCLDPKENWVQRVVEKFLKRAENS

T2: CXCL1_HUMAN (human, UniProt P09341 35-107)
T2 sequence: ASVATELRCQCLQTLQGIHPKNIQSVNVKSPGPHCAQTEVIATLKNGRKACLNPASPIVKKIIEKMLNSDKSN

T3: CXCL13_HUMAN (human, UniProt O43927 23-109)
T3 sequence: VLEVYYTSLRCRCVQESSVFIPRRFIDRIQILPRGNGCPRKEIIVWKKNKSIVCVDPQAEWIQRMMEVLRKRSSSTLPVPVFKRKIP

T4: CXCL9_HUMAN (human, UniProt Q07325 23-125)
T4 sequence: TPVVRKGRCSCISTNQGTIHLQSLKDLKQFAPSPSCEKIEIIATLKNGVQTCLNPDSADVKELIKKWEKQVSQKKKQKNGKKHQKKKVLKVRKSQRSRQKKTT

T5: P1183_AMBTR (Amblyomma triste, UniProt A0A023G9N9 26-115)
T5 sequence: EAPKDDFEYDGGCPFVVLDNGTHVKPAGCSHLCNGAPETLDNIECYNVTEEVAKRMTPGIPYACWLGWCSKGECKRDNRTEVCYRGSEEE

T6: P1180_AMBTR (Amblyomma triste, UniProt A0A023G6B6 26-116)
T6 sequence: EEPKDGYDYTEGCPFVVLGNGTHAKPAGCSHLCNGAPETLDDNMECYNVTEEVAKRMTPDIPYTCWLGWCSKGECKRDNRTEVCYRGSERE

T7: P985_AMBPA (Amblyomma parvum, UniProt A0A023FT45 25-132)
T7 sequence: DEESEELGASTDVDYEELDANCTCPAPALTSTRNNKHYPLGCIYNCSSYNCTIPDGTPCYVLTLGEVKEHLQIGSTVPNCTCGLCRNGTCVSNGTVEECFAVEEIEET

T8: P1243_AMBAM (Amblyomma americanum, UniProt A0A0C9S461 26-123)
T8 sequence: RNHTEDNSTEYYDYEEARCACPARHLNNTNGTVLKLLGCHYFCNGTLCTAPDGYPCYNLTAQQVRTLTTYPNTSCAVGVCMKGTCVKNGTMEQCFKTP

T9: P1181_AMBMA (Amblyomma maculatum, UniProt G3MIX6 26-115)
T9 sequence: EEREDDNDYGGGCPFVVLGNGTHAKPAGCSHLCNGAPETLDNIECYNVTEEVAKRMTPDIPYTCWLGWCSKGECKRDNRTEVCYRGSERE

T10: P546_AMBCA (Amblyomma cajennense, UniProt A0A023FBW7 22-118)
T10 sequence: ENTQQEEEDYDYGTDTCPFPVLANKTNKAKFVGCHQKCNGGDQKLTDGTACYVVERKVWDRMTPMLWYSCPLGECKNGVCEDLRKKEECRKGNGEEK

T11: P991_AMBCA (Amblyomma cajennense, UniProt A0A023FFD0 29-136)
T11 sequence: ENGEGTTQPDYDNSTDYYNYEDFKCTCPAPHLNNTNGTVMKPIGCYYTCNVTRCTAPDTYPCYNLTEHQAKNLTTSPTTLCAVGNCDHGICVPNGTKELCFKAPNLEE

T12: P974_AMBCA (Amblyomma cajennense, UniProt A0A023FDY8 22-118)
T12 sequence: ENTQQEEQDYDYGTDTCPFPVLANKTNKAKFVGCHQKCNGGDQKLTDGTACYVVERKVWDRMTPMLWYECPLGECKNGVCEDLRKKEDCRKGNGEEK

T13: P672_RHIPU (Rhipicephalus pulchellus, UniProt L7MC74 22-125)
T13 sequence: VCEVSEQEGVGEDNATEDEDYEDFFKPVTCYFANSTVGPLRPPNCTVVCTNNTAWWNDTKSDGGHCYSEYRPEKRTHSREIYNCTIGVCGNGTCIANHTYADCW

T14: P983_AMBCA (Amblyomma cajennense, UniProt A0A023FFB5 22-119)
T14 sequence: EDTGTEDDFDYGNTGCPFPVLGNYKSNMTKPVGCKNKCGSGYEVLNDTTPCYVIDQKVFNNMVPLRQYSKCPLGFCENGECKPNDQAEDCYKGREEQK

T15: P467_RHIPU (Rhipicephalus pulchellus, UniProt L7M8Z8 22-127)
T15 sequence: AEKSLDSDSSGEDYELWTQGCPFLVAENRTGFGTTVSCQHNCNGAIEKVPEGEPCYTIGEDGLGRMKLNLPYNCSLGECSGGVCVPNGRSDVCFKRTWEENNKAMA

T16: CXCL6_HUMAN (human, UniProt P80162 38-114)
T16 sequence: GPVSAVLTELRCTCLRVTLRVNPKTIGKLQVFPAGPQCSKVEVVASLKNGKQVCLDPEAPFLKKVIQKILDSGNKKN

T17: CXCL14_HUMAN (human, UniProt O95715 35-111)
T17 sequence: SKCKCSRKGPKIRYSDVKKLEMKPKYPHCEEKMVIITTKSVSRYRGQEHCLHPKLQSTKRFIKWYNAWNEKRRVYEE

T18: CXCL10_HUMAN (human, UniProt P02778 22-98)
T18 sequence: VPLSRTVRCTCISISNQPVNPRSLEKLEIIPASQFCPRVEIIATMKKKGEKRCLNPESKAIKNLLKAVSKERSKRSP

T19: CXCL11_HUMAN (human, UniProt O14625 22-94)
T19 sequence: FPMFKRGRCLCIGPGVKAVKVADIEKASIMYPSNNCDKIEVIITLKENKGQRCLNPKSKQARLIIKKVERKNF

T20: CXCL7_HUMAN (human, UniProt P02775 59-128)
T20 sequence: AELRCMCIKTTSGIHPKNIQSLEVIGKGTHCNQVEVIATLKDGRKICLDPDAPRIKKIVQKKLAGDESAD

T21: CXCL4_HUMAN (human, UniProt P02776 32-101)
T21 sequence: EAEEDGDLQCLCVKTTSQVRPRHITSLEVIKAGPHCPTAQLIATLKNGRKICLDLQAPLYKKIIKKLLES

B1: P1168_IXORI (other)
chain: GQDTDGKEKSDEYELFTVEYCGTNCTQLENGSWTACTGKNGTCRCFHENDKKVGLCLSTEYTDFSEYPDPNSEEIKAASPLP
B2: CCL7_HUMAN (ligand)
chain: not shown
B3: P1128_IXORI (other)
chain: KDDEHFSVDYCGMNCTQQEDGSWTACSGRNEECRCYHESGKKNGLCLSTTYIDFSQYGNPSDSDIAAASPRP
B4: P675_IXORI (other)
chain: GSNQLSGPQSSANSNDAVFCDTNCTQGTDGAWSGCRGDCFCVHVGNSTEGRCIELIGDFDYSTPGAED
B5: P1174_IXORI (other)
chain: LNNENELFSVEYCGANCTQQDNGSWTKCKGNCTCYHEDGKRYGLCLSTEYTDFTQFPKPTSEEIADASPRPKETNSH
B6: P1078_IXORI (other)
chain: GSKGSSAQQSSHDSIKAEFCETNCTMKTGGKWTQCHGGCFCVHVGNETVGRCIKLDGDYDYPSSKHEE
B7: P942_IXORI (other)
chain: NQLSGPQSSANSNEAVFCDTNCTQGTDEAWSGCRGDCFCVYVGNSTEGRCMMLSGDFDYSTPGAED
B8: P1080_IXORI (other)
chain: SAGSKGSSAPQSSGDSVVAEFCDTNCTMKKDGKWTECNGDCFCVHVGNETVGRCMRLDGDYDYTSSKTTRRNKKTRNGLCRLDRNRTTVDYPERNTREP
B9: P1101_IXORI (other)
chain: HTTVAGSDEDIEVSYCGMNCTVESGKSSKCSPDCVCVHEGNERDGICISITYLGDLGNPLEDPSIDLATPLAPVFQSSK
B10: P1074_IXORI (other)
chain: GSKESSAHQSSDDSIKAEFCDAKCTMKTDGKWTQCHGGCFCVHVGNETEGRCMRLDGDYDYPSTQPEE
B11: P1127_IXORI (other)
chain: AGKDDEHFSVDYCGMNCTQQEDGSWTACSGRNGECRCYHESGKRSGLCLSTTYIDFSEYGNLSDSDIAAASPRLSMKESH

Legend:
CXCL8_HUMAN [1] = biological target: T1, CXCL8_HUMAN; assay: yeast surface display FACS re-test; also: test concentration or dose not given here
CXCL1_HUMAN = biological target: T2, CXCL1_HUMAN; assay: yeast surface display FACS re-test; also: test concentration or dose not given here
CXCL13_HUMAN = biological target: T3, CXCL13_HUMAN; assay: BLI
CXCL9_HUMAN = biological target: T4, CXCL9_HUMAN; assay: BLI
CXCL12_HUMAN = CXCL12_HUMAN (human, UniProt P48061 22-89); assay: BLI
Chain of CXCL12_HUMAN (P48061 22-89 limits assumed): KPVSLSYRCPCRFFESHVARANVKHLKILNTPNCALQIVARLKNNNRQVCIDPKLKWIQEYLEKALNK

P1183_AMBTR = biological target: T5, P1183_AMBTR; assay: BLI
P1180_AMBTR = biological target: T6, P1180_AMBTR; assay: BLI
P985_AMBPA = biological target: T7, P985_AMBPA; assay: BLI
P1243_AMBAM [2] = biological target: T8, P1243_AMBAM; assay: BLI
P1181_AMBMA = biological target: T9, P1181_AMBMA; assay: BLI
P546_AMBCA = biological target: T10, P546_AMBCA; assay: BLI
P991_AMBCA = biological target: T11, P991_AMBCA; assay: BLI
P974_AMBCA = biological target: T12, P974_AMBCA; assay: BLI
P672_RHIPU = biological target: T13, P672_RHIPU; assay: BLI
P983_AMBCA = biological target: T14, P983_AMBCA; assay: BLI
P467_RHIPU = biological target: T15, P467_RHIPU; assay: BLI
P1243_AMBAM [3] = biological target: T8, P1243_AMBAM; assay: BLI; remark: listed apart in the source
CXCL6_HUMAN = biological target: T16, CXCL6_HUMAN; assay: BLI [Cont.]
CXCL14_HUMAN = biological target: T17, CXCL14_HUMAN; assay: BLI
CXCL10_HUMAN [4] = biological target: T18, CXCL10_HUMAN; assay: BLI
CXCL11_HUMAN [5] = biological target: T19, CXCL11_HUMAN; assay: BLI
CXCL7_HUMAN = biological target: T20, CXCL7_HUMAN; assay: BLI [Cont.]
CXCL8_HUMAN [6] = biological target: T1, CXCL8_HUMAN; assay: BLI [Cont.]
CXCL11_HUMAN [7] = biological target: T19, CXCL11_HUMAN; assay: yeast surface display FACS re-test; also: test concentration or dose not given here
CXCL4_HUMAN = biological target: T21, CXCL4_HUMAN; assay: BLI [Cont.]
CXCL10_HUMAN [8] = biological target: T18, CXCL10_HUMAN; assay: yeast surface display FACS re-test; also: test concentration or dose not given here

Row | Binder | % cells over threshold fluorescence (CXCL8_HUMAN [1]) | binding result (CXCL13_HUMAN) | binding result (CXCL9_HUMAN) | binding result (CXCL12_HUMAN) | binding result (CXCL14_HUMAN) | binding result (CXCL7_HUMAN) | binding result (CXCL8_HUMAN [6]) | % cells over threshold fluorescence (CXCL11_HUMAN [7]) | also measured
1 | B1 | 24% | no binding (tested: 300 nM) | no binding (tested: 300 nM) | no binding (tested: 300 nM) |  |  |  |  | % cells over threshold fluorescence (CXCL1_HUMAN): 66%
2 | B2 |  |  |  |  |  |  |  |  | Kd (P1183_AMBTR): 5.4 nM; Kd (P1180_AMBTR): 98 nM; Kd (P985_AMBPA): 61 nM; Kd (P1243_AMBAM [2]): 8.66 nM; Kd (P1181_AMBMA): 120 nM; Kd (P546_AMBCA): 90 nM; Kd (P991_AMBCA): 0.514 nM; Kd (P974_AMBCA): 41.2 nM; Kd (P672_RHIPU): 16 nM; Kd (P983_AMBCA): 32 nM; Kd (P467_RHIPU): 2.15 nM; Kd (P1243_AMBAM [3]): 8.66 nM
3 | B3 | 53% | no binding (tested: 300 nM) | no binding (tested: 300 nM) | no binding (tested: 300 nM) | no binding (tested: 300 nM) |  |  |  | binding result (CXCL6_HUMAN): no binding (tested: 300 nM); binding result (CXCL10_HUMAN [4]): no binding (tested: 300 nM); binding result (CXCL11_HUMAN [5]): no binding (tested: 300 nM)
4 | B4 |  |  | no binding (tested: 300 nM) | no binding (tested: 300 nM) | no binding (tested: 300 nM) | no binding (tested: 300 nM) | no binding (tested: 300 nM) | 55% | 
5 | B5 | 29% | no binding (tested: 300 nM) | no binding (tested: 300 nM) | no binding (tested: 300 nM) | no binding (tested: 300 nM) |  |  |  | binding result (CXCL6_HUMAN): no binding (tested: 300 nM); binding result (CXCL10_HUMAN [4]): no binding (tested: 300 nM)
6 | B6 |  |  | no binding (tested: 300 nM) | no binding (tested: 300 nM) | no binding (tested: 300 nM) | no binding (tested: 300 nM) | no binding (tested: 300 nM) | 38% | binding result (CXCL4_HUMAN): no binding (tested: 300 nM)
7 | B7 |  |  | no binding (tested: 300 nM) | no binding (tested: 300 nM) | no binding (tested: 300 nM) | no binding (tested: 300 nM) | no binding (tested: 300 nM) | 37% | 
8 | B8 |  |  |  |  |  |  |  | 45% | % cells over threshold fluorescence (CXCL10_HUMAN [8]): 70%
9 | B9 |  |  |  |  |  |  |  |  | % cells over threshold fluorescence (CXCL10_HUMAN [8]): 75%
10 | B10 |  |  |  | no binding (tested: 300 nM) | no binding (tested: 300 nM) | no binding (tested: 300 nM) | no binding (tested: 300 nM) | 33% | % cells over threshold fluorescence (CXCL10_HUMAN [8]): 71%
11 | B11 | 43% | no binding (tested: 300 nM) | no binding (tested: 300 nM) | no binding (tested: 300 nM) |  |  |  |  | 
